Biological target: hsTFB1M (Homo sapiens, UniProt Q8WVM0 28-346)
Assay: X-ray crystallography; no SAM (binary complex), 3.0 A; EMSA: 50 mM Tris-HCl pH 8.0, 25 mM NaCl, 100 nM RNA, TFB1M 0-2 mM as printed (legend suggests uM), 37 C 30 min; 6% native PAGE, 0.5x TBE
Conditions: protein: recombinant; tags: His6-MBP N-terminal, removed by TEV; hairpin

hsTFB1M, sequence (Q8WVM0 28-346): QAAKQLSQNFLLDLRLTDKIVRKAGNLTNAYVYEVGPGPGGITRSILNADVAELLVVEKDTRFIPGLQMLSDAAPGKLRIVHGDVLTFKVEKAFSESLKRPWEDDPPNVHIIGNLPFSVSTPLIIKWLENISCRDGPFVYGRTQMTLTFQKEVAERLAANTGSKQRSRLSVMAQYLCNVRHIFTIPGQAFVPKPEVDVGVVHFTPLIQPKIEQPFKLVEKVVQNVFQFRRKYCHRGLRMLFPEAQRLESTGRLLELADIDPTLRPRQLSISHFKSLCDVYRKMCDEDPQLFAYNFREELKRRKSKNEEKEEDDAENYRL

B1: h45 RNA (crystal) (structured_RNA)
RNA: GGUAAGUGUACUGGAAAGUGCACUUGCC
- binding result: binds
